In this assay the target is T1, corticotropin-releasing hormone (CRH) peptide (human and mouse (same sequence), not fully specified).
T1 peptide: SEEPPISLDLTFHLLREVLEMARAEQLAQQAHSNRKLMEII
The assay is described as follows: cell-based or functional assay.

B1: PR302341-65 (antibody, human IgG1, kappa, V domains shown)
VH: QVQLVQSGAEVKKPGASVKVSCKASGYTFTDYFMKWVRQAPGQRLEWMGVINPNSGDIFYNQKFKGRVTITRDTSASTAYMELSSLRSEDTAVYYCARGTDRALFAYWGQGTLVTVSS
VL: DVVMTQSPLSLPVTLGQPASISCRSGQSIVHSSGNTYLEWYQQRPGQSPRLLIYKVSNRFSGVPDRFSGSGSGTDFTLKISRVEAEDLGVYYCFQGSHIPWTFGGGTKVEIKR
For B1, the “hCRHR1 Luciferase Reporter Assay IC50” value worked out at 3.12 nM.

B2: PR302341-41 (antibody, human IgG1, kappa, V domains shown)
VH: QVQLVQSGAEVKKPGASVKVSCKASGYTFTDYFMKWVRQAPGQGLEWMGVINPNSGDIFYNQKFKGRVTMTVDKSISTAYMELSRLRSDDTAVYYCARGTDRALFAYWGQGTLVTVSS
VL: DVVMTQSPLSLPVTLGQPASISCRSGQSIVHSDGNTYLEWYQQRPGQSPRLLIYKVSNRFSGVPDRFSGSGSGTDFTLKISRVEAEDLGVYYCFQGSHIPWTFGGGTKVEIKR
Regarding B2, the “hCRHR1 Luciferase Reporter Assay IC50” value was 0.471 nM.

B3: PR302341-70 (antibody, human IgG1, kappa, V domains shown)
VH: QVQLVQSGAEVKKPGASVKVSCKASGYTFTDYFMKWVRQAPGQRLEWMGVINPNNGDIFYNQKFKGRVTITRDTSASTAYMELSSLRSEDTAVYYCARGTDRALFAYWGQGTLVTVSS
VL: DVVMTQSPLSLPVTLGQPASISCRSGQSIVHSDANTYLEWYQQRPGQSPRLLIYKVSNRFSGVPDRFSGSGSGTDFTLKISRVEAEDLGVYYCFQGSHIPWTFGGGTKVEIKR
As for B3, the “hCRHR1 Luciferase Reporter Assay IC50” value is 1.6 nM.

B4: PR302341-29 (antibody, human IgG1, kappa, V domains shown)
VH: QVQLVQSGAEVKKPGASVKVSCKASGYTFTDYFMKWVRQAPGQGLEWMGVINPNNADIFYNQKFKGRVTMTVDKSISTAYMELSRLRSDDTAVYYCARGTDRALFAYWGQGTLVTVSS
VL: DVVMTQSPLSLPVTLGQPASISCRSGQSIVHSDGNTYLEWYQQRPGQSPRLLIYKVSNRFSGVPDRFSGSGSGTDFTLKISRVEAEDLGVYYCFQGSHIPWTFGGGTKVEIKR
Consider B4, for which the “hCRHR1 Luciferase Reporter Assay IC50” value worked out at 0.427 nM and the “mCrhr1 Luciferase Reporter Assay IC50” value came to 1.39 nM.

B5: PR302341-35 (antibody, human IgG1, kappa, V domains shown)
VH: QVQLVQSGAEVKKPGASVKVSCKASGYTFTDYFMKWVRQAPGQGLEWMGVINPNNADIFYNQKFKGRVTMTVDKSISTAYMELSRLRSDDTAVYYCARGTDRALFAYWGQGTLVTVSS
VL: DVVMTQSPLSLPVTLGQPASISCRSGQSIVHSEGNTYLEWYQQRPGQSPRLLIYKVSNRFSGVPDRFSGSGSGTDFTLKISRVEAEDLGVYYCFQGSHIPWTFGGGTKVEIKR
Consider B5, for which the “hCRHR1 Luciferase Reporter Assay IC50” value came to 1.75 nM.

B6: PR302341-33 (antibody, human IgG1, kappa, V domains shown)
VH: QVQLVQSGAEVKKPGASVKVSCKASGYTFTDYFMKWVRQAPGQGLEWMGVINPNNADIFYNQKFKGRVTMTVDKSISTAYMELSRLRSDDTAVYYCARGTDRALFAYWGQGTLVTVSS
VL: DVVMTQSPLSLPVTLGQPASISCRSGQSIVHSDANTYLEWYQQRPGQSPRLLIYKVSNRFSGVPDRFSGSGSGTDFTLKISRVEAEDLGVYYCFQGSHIPWTFGGGTKVEIKR
Take B6: the “hCRHR1 Luciferase Reporter Assay IC50” value is 0.821 nM and the “mCrhr1 Luciferase Reporter Assay IC50” value is 1.66 nM.

B7: PR302341-40 (antibody, human IgG1, kappa, V domains shown)
VH: QVQLVQSGAEVKKPGASVKVSCKASGYTFTDYFMKWVRQAPGQGLEWMGVINPNSGDIFYNQKFKGRVTMTVDKSISTAYMELSRLRSDDTAVYYCARGTDRALFAYWGQGTLVTVSS
VL: DVVMTQSPLSLPVTLGQPASISCRSGQSIVHSSGNTYLEWYQQRPGQSPRLLIYKVSNRFSGVPDRFSGSGSGTDFTLKISRVEAEDLGVYYCFQGSHIPWTFGGGTKVEIKR
Turning to B7, the “hCRHR1 Luciferase Reporter Assay IC50” value was 1.82 nM.

B8: PR302341-72 (antibody, human IgG1, kappa, V domains shown)
VH: QVQLVQSGAEVKKPGASVKVSCKASGYTFTDYFMKWVRQAPGQRLEWMGVINPNNGDIFYNQKFKGRVTITRDTSASTAYMELSSLRSEDTAVYYCARGTDRALFAYWGQGTLVTVSS
VL: DVVMTQSPLSLPVTLGQPASISCRSGQSIVHSSGNTYLEWYQQRPGQSPRLLIYKVSNRFSGVPDRFSGSGSGTDFTLKISRVEAEDLGVYYCFQGSHIPWTFGGGTKVEIKR
Regarding B8, the “hCRHR1 Luciferase Reporter Assay IC50” value is 1.73 nM.

B9: PR302341-32 (antibody, human IgG1, kappa, V domains shown)
VH: QVQLVQSGAEVKKPGASVKVSCKASGYTFTDYFMKWVRQAPGQGLEWMGVINPNQGDIFYNQKFKGRVTMTVDKSISTAYMELSRLRSDDTAVYYCARGTDRALFAYWGQGTLVTVSS
VL: DVVMTQSPLSLPVTLGQPASISCRSGQSIVHSEGNTYLEWYQQRPGQSPRLLIYKVSNRFSGVPDRFSGSGSGTDFTLKISRVEAEDLGVYYCFQGSHIPWTFGGGTKVEIKR
B9: the “hCRHR1 Luciferase Reporter Assay IC50” value was 1.89 nM.

B10: PR302341-30 (antibody, human IgG1, kappa, V domains shown)
VH: QVQLVQSGAEVKKPGASVKVSCKASGYTFTDYFMKWVRQAPGQGLEWMGVINPNNGDIFYNQKFKGRVTMTVDKSISTAYMELSRLRSDDTAVYYCARGTDRALFAYWGQGTLVTVSS
VL: DVVMTQSPLSLPVTLGQPASISCRSGQSIVHSEGNTYLEWYQQRPGQSPRLLIYKVSNRFSGVPDRFSGSGSGTDFTLKISRVEAEDLGVYYCFQGSHIPWTFGGGTKVEIKR
In the case of B10, the “hCRHR1 Luciferase Reporter Assay IC50” value turned out to be 0.457 nM.

B11: PR302341-66 (antibody, human IgG1, kappa, V domains shown)
VH: QVQLVQSGAEVKKPGASVKVSCKASGYTFTDYFMKWVRQAPGQRLEWMGVINPNQGDIFYNQKFKGRVTITRDTSASTAYMELSSLRSEDTAVYYCARGTDRALFAYWGQGTLVTVSS
VL: DVVMTQSPLSLPVTLGQPASISCRSGQSIVHSSGNTYLEWYQQRPGQSPRLLIYKVSNRFSGVPDRFSGSGSGTDFTLKISRVEAEDLGVYYCFQGSHIPWTFGGGTKVEIKR
Turning to B11, the “hCRHR1 Luciferase Reporter Assay IC50” value stood at 4.13 nM.

B12: PR302341-37 (antibody, human IgG1, kappa, V domains shown)
VH: QVQLVQSGAEVKKPGASVKVSCKASGYTFTDYFMKWVRQAPGQGLEWMGVINPNSGDIFYNQKFKGRVTMTVDKSISTAYMELSRLRSDDTAVYYCARGTDRALFAYWGQGTLVTVSS
VL: DVVMTQSPLSLPVTLGQPASISCRSGQSIVHSDANTYLEWYQQRPGQSPRLLIYKVSNRFSGVPDRFSGSGSGTDFTLKISRVEAEDLGVYYCFQGSHIPWTFGGGTKVEIKR
Regarding B12, the “hCRHR1 Luciferase Reporter Assay IC50” value stood at 0.792 nM and the “mCrhr1 Luciferase Reporter Assay IC50” value was 1.29 nM.

B13: PR302341-34 (antibody, human IgG1, kappa, V domains shown)
VH: QVQLVQSGAEVKKPGASVKVSCKASGYTFTDYFMKWVRQAPGQGLEWMGVINPNQGDIFYNQKFKGRVTMTVDKSISTAYMELSRLRSDDTAVYYCARGTDRALFAYWGQGTLVTVSS
VL: DVVMTQSPLSLPVTLGQPASISCRSGQSIVHSDANTYLEWYQQRPGQSPRLLIYKVSNRFSGVPDRFSGSGSGTDFTLKISRVEAEDLGVYYCFQGSHIPWTFGGGTKVEIKR
Consider B13, for which the “hCRHR1 Luciferase Reporter Assay IC50” value turned out to be 0.616 nM and the “mCrhr1 Luciferase Reporter Assay IC50” value was found to be 2.19 nM.

B14: PR302341-31 (antibody, human IgG1, kappa, V domains shown)
VH: QVQLVQSGAEVKKPGASVKVSCKASGYTFTDYFMKWVRQAPGQGLEWMGVINPNNGDIFYNQKFKGRVTMTVDKSISTAYMELSRLRSDDTAVYYCARGTDRALFAYWGQGTLVTVSS
VL: DVVMTQSPLSLPVTLGQPASISCRSGQSIVHSDANTYLEWYQQRPGQSPRLLIYKVSNRFSGVPDRFSGSGSGTDFTLKISRVEAEDLGVYYCFQGSHIPWTFGGGTKVEIKR
In the case of B14, the “hCRHR1 Luciferase Reporter Assay IC50” value was 0.498 nM.

B15: PR302341-28 (antibody, human IgG1, kappa, V domains shown)
VH: QVQLVQSGAEVKKPGASVKVSCKASGYTFTDYFMKWVRQAPGQGLEWMGVINPNQGDIFYNQKFKGRVTMTVDKSISTAYMELSRLRSDDTAVYYCARGTDRALFAYWGQGTLVTVSS
VL: DVVMTQSPLSLPVTLGQPASISCRSGQSIVHSDGNTYLEWYQQRPGQSPRLLIYKVSNRFSGVPDRFSGSGSGTDFTLKISRVEAEDLGVYYCFQGSHIPWTFGGGTKVEIKR
Regarding B15, the “hCRHR1 Luciferase Reporter Assay IC50” value is 0.267 nM and the “mCrhr1 Luciferase Reporter Assay IC50” value came to 2.43 nM.

B16: PR302341-39 (antibody, human IgG1, kappa, V domains shown)
VH: QVQLVQSGAEVKKPGASVKVSCKASGYTFTDYFMKWVRQAPGQGLEWMGVINPNNADIFYNQKFKGRVTMTVDKSISTAYMELSRLRSDDTAVYYCARGTDRALFAYWGQGTLVTVSS
VL: DVVMTQSPLSLPVTLGQPASISCRSGQSIVHSSGNTYLEWYQQRPGQSPRLLIYKVSNRFSGVPDRFSGSGSGTDFTLKISRVEAEDLGVYYCFQGSHIPWTFGGGTKVEIKR
Take B16: the “hCRHR1 Luciferase Reporter Assay IC50” value amounted to 1.04 nM.

B17: PR302341-71 (antibody, human IgG1, kappa, V domains shown)
VH: QVQLVQSGAEVKKPGASVKVSCKASGYTFTDYFMKWVRQAPGQRLEWMGVINPNNGDIFYNQKFKGRVTITRDTSASTAYMELSSLRSEDTAVYYCARGTDRALFAYWGQGTLVTVSS
VL: DVVMTQSPLSLPVTLGQPASISCRSGQSIVHSEGNTYLEWYQQRPGQSPRLLIYKVSNRFSGVPDRFSGSGSGTDFTLKISRVEAEDLGVYYCFQGSHIPWTFGGGTKVEIKR
As to B17, the “hCRHR1 Luciferase Reporter Assay IC50” value came out at 2.01 nM.

B18: PR302341-38 (antibody, human IgG1, kappa, V domains shown)
VH: QVQLVQSGAEVKKPGASVKVSCKASGYTFTDYFMKWVRQAPGQGLEWMGVINPNQGDIFYNQKFKGRVTMTVDKSISTAYMELSRLRSDDTAVYYCARGTDRALFAYWGQGTLVTVSS
VL: DVVMTQSPLSLPVTLGQPASISCRSGQSIVHSSGNTYLEWYQQRPGQSPRLLIYKVSNRFSGVPDRFSGSGSGTDFTLKISRVEAEDLGVYYCFQGSHIPWTFGGGTKVEIKR
As to B18, the “hCRHR1 Luciferase Reporter Assay IC50” value was determined as 1.78 nM.

B19: PR302341-42 (antibody, human IgG1, kappa, V domains shown)
VH: QVQLVQSGAEVKKPGASVKVSCKASGYTFTDYFMKWVRQAPGQGLEWMGVINPNNGDIFYNQKFKGRVTMTVDKSISTAYMELSRLRSDDTAVYYCARGTDRALFAYWGQGTLVTVSS
VL: DVVMTQSPLSLPVTLGQPASISCRSGQSIVHSSGNTYLEWYQQRPGQSPRLLIYKVSNRFSGVPDRFSGSGSGTDFTLKISRVEAEDLGVYYCFQGSHIPWTFGGGTKVEIKR
As to B19, the “hCRHR1 Luciferase Reporter Assay IC50” value was determined as 1.98 nM.

B20: PR302341-36 (antibody, human IgG1, kappa, V domains shown)
VH: QVQLVQSGAEVKKPGASVKVSCKASGYTFTDYFMKWVRQAPGQGLEWMGVINPNSGDIFYNQKFKGRVTMTVDKSISTAYMELSRLRSDDTAVYYCARGTDRALFAYWGQGTLVTVSS
VL: DVVMTQSPLSLPVTLGQPASISCRSGQSIVHSEGNTYLEWYQQRPGQSPRLLIYKVSNRFSGVPDRFSGSGSGTDFTLKISRVEAEDLGVYYCFQGSHIPWTFGGGTKVEIKR
As for B20, the “hCRHR1 Luciferase Reporter Assay IC50” value is 1.77 nM.

Values taken from patent US20260042834A1 (HBM ALPHA THERAPEUTICS, published 2026).
